Results published in article PMC4298360.

Assays:
[1] = target: cynomolgus IL-2Rβγ heterodimeric Fc fusion (knobs-into-holes), biotinylated (cynomolgus) (UniProt Q38J85)
[2] = target: human IL-2Rβγ heterodimeric Fc fusion (knobs-into-holes), biotinylated (human) (UniProt P14784)
[3] = target: cynomolgus IL-2Rβγ heterodimeric Fc fusion (knobs-into-holes), biotinylated (cynomolgus) (UniProt Q38J85); test: SPR; Biacore T200; biotinylated IL2Rβγ-Fc heterodimer immobilised on streptavidin chips; 2-fold dilution series (1.2–300 nM) of IgG-(IL-2)2 injected 2 min, dissociation up to 10 min; global fit, 1:1 interaction model despite bivalent binding: apparent KD
[4] = target: human IL-2Rβγ heterodimeric Fc fusion (knobs-into-holes), biotinylated (human) (UniProt P14784); test: as above
[5] = target: murine IL-2Rβγ heterodimeric Fc fusion (knobs-into-holes), biotinylated (murine) (UniProt P16297); test: as above
[6] = target: cynomolgus IL-2Rβγ heterodimeric Fc fusion (knobs-into-holes), biotinylated (cynomolgus) (UniProt Q38J85); test: SPR; Biacore T200; biotinylated IL2Rβγ-Fc heterodimer immobilised on streptavidin chips; 2-fold dilution series (1.2–300 nM) of IgG-IL-2 injected 2 min, dissociation up to 10 min; global fit, 1:1 interaction model
[7] = target: human IL-2Rβγ heterodimeric Fc fusion (knobs-into-holes), biotinylated (human) (UniProt P14784); test: as above
[8] = target: murine IL-2Rβγ heterodimeric Fc fusion (knobs-into-holes), biotinylated (murine) (UniProt P16297); test: as above

Sequence of IgG-(IL-2)2 (bivalent fusion of two wild-type human IL-2 to a non-targeted, effector-silent human IgG1) (P60568 21-153 limits assumed): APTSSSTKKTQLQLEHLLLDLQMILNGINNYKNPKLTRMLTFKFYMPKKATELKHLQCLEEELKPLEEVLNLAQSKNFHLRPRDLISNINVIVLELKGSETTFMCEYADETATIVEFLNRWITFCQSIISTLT
Sequence of IgG-IL-2 (monovalent fusion of wild-type human IL-2 to a non-targeted, effector-silent human IgG1) (P60568 21-153 limits assumed): as above
Sequence of human IL-2Rβγ heterodimeric Fc fusion (knobs-into-holes), biotinylated (human) (P14784 27-240, chain 1 of 2): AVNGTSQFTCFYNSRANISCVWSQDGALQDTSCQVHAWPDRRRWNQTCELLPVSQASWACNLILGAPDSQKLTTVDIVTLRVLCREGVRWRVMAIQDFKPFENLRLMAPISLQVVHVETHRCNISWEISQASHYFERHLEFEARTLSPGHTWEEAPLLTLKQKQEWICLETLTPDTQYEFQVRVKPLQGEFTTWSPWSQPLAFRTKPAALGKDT
Sequence of human IL-2Rβγ heterodimeric Fc fusion (knobs-into-holes), biotinylated (human) (P31785 23-262, chain 2 of 2, further chain): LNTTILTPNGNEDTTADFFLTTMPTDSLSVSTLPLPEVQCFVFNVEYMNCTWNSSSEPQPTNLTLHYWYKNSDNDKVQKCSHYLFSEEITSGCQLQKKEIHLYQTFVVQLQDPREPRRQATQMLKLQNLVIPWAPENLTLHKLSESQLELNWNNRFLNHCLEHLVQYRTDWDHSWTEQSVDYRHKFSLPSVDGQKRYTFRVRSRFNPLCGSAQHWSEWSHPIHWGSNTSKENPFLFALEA
Sequence of murine IL-2Rβγ heterodimeric Fc fusion (knobs-into-holes), biotinylated (murine) (P16297 27-240, chain 1 of 2): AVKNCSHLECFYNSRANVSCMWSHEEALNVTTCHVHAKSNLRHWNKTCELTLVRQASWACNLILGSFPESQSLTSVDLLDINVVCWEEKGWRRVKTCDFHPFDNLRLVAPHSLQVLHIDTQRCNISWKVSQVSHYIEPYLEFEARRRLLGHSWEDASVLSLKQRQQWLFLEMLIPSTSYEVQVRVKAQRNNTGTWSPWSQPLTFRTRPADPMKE
Sequence of murine IL-2Rβγ heterodimeric Fc fusion (knobs-into-holes), biotinylated (murine) (P34902 23-263, chain 2 of 2, further chain): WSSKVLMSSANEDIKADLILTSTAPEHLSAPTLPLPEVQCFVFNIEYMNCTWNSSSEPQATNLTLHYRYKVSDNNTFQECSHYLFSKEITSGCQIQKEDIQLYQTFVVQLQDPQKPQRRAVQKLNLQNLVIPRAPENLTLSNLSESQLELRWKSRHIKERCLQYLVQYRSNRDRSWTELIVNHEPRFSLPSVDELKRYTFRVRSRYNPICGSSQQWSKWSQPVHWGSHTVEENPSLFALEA

| ED50 of pSTAT5a induction in cynomolgus Tregs in whole blood (30 min, 37 °C); the receptor meant is the IL-2 receptor on the cells [1] [pM] | ED50 of pSTAT5a induction in human Tregs in whole blood (30 min, 37 °C); the receptor meant is the IL-2 receptor on the cells [2] [pM] | Kd [3] [nM] | Kd [4] [pM] | Kd [5] [nM] | Kd [6] [nM] | Kd [7] [nM] | Kd [8] [nM] | Substance |
| --- | --- | --- | --- | --- | --- | --- | --- | --- |
| 0.1 | 0.3 | 0.04 | 3 | 0.04 |  |  |  | IgG-(IL-2)2 (bivalent fusion of two wild-type human IL-2 to a non-targeted, effector-silent human IgG1) (from UniProt P60568 21-153) |
|  |  |  |  |  | 0.18 | 0.04 | 0.75 | IgG-IL-2 (monovalent fusion of wild-type human IL-2 to a non-targeted, effector-silent human IgG1) (from UniProt P60568 21-153) |
